Reference: publication doi:10.1101/2020.04.28.065904

Molecular target: aa defensin C (mature Aedes albopictus defensin C peptide) (Aedes albopictus)
Test: ELISA

Substance	absorbance
JEV E protein (recombinant) (natural protein)	0.95
JEV ED III protein (ED III domain of the E protein, recombinant) (domain or fragment)	1.17
